Kd, koff and kon data for nine molecules are collected here from patent US20230340151A1 (Pfizer, published 2023).

The chains are these.
B1: GUCY2C-1705 (antibody, human IgG1, V domains shown)
VH: EVQLVESGGGLVQPGGSLRLSCAASGFTFSSYWMHWVRQAPGKGLEWIGEIKPSRGFTNVHEKFKDRFTISVDKAKNSAYLQMNSLRAEDTAVYYCTRTITTTEGYWFFDVWGQGTLVTVSS
VL: DIQLTQSPSSLSASVGDRVTITCRASESVDYYGSSLMQWYQQKPGKAPKLLIYAASKLASGVPSRFSGSGSGTDFTLTISSLQPEDFATYYCQQTRKAYTFGQGTKLEIK
notes: full human IgG1/kappa
B2: GUCY2C-1640 (antibody, human IgG1, kappa, V domains shown)
VH: EVQLVESGGGLVQPGGSLRLSCAASGFTFSSYWMHWVRQAPGKGLEWIGEIKPSNELTNVHEKFKDRFTISVDKAKNSAYLQMNSLRAEDTAVYYCTRTITTTEGYWFFDVWGQGTLVTVSS
VL: DIQLTQSPSSLSASVGDRVTITCRASESVDYYGSSLLQWYQQKPGKAPKLLIYAASKLASGVPSRFSGSGSGTDFTLTISSLQPEDFATYYCQQTRKAYTFGQGTKLEIKR
B3: GUCY2C-1708 (antibody, human IgG1, V domains shown)
VH: EVQLVESGGGLVQPGGSLRLSCAASGFTFSRPWMHWVRQAPGKGLEWIGEIKPSTGWTNVHEKFKDRFTISVDKAKNSAYLQMNSLRAEDTAVYYCTRTITTTTGYWFFDVWGQGTLVTVSS
VL: DIQLTQSPSSLSASVGDRVTITCRASESVDYYKHSLMQWYQQKPGKAPKLLIYAASKLASGVPSRFSGSGSGTDFTLTISSLQPEDFATYYCQQTRKAYTFGQGTKLEIK
notes: full human IgG1/kappa
B4: GUCY2C-1714 (antibody, human IgG1, V domains shown)
VH: EVQLVESGGGLVQPGGSLRLSCAASGFTFSHTWMHWVRQAPGKGLEWIGEIKPSTKYTNVHEKFKDRFTISVDKAKNSAYLQMNSLRAEDTAVYYCARTIFTREGYWFFDVWGQGTLVTVSS
VL: DIQLTQSPSSLSASVGDRVTITCRASESVNWYGSSLMQWYQQKPGKAPKLLIYAASKLASGVPSRFSGSGSGTDFTLTISSLQPEDFATYYCQQTRKAYTFGQGTKLEIK
notes: full human IgG1/kappa
B5: GUCY2C-1710 (antibody, human IgG1, V domains shown)
VH: EVQLVESGGGLVQPGGSLRLSCAASGFTFSSYWMHWVRQAPGKGLEWIGEIKPSRGWTNVHEKFKDRFTISVDKAKNSAYLQMNSLRAEDTAVYYCARTITTTEGYWFFDVWGQGTLVTVSS
VL: DIQLTQSPSSLSASVGDRVTITCRASESVDYYRHSLMQWYQQKPGKAPKLLIYAASKLASGVPSRFSGSGSGTDFTLTISSLQPEDFATYYCQQTRKAYTFGQGTKLEIK
notes: full human IgG1/kappa
B6: GUCY2C-1703 (antibody, human IgG1, V domains shown)
VH: EVQLVESGGGLVQPGGSLRLSCAASGFTFSSYWMHWVRQAPGKGLEWIGEIKPSNRWNNVHEKFKDRFTISVDKAKNSAYLQMNSLRAEDTAVYYCTRTITTTEGYWFFDVWGQGTLVTVSS
VL: DIQLTQSPSSLSASVGDRVTITCRASESVDYYGSSLMQWYQQKPGKAPKLLIYAASKLASGVPSRFSGSGSGTDFTLTISSLQPEDFATYYCQQTRKAYTFGQGTKLEIK
notes: full human IgG1/kappa
B7: GUCY2C-1706 (antibody, human IgG1, V domains shown)
VH: EVQLVESGGGLVQPGGSLRLSCAASGFTFSSTWMHWVRQAPGKGLEWIGEIKPSNELTNVHEKFKDRFTISVDKAKNSAYLQMNSLRAEDTAVYYCTRTITTTEGYWFFDVWGQGTLVTVSS
VL: DIQLTQSPSSLSASVGDRVTITCRASESVDYYGSSLMQWYQQKPGKAPKLLIYAASKLASGVPSRFSGSGSGTDFTLTISSLQPEDFATYYCQQTRKAYTFGQGTKLEIK
notes: full human IgG1/kappa
B8: GUCY2C-1696 (antibody, human IgG1, V domains shown)
VH: EVQLVESGGGLVQPGGSLRLSCAASGFTFSTRWMHWVRQAPGKGLEWIGEIKPSNKLTNVHEKFKDRFTISVDKAKNSAYLQMNSLRAEDTAVYYCARTITTTEGYWFLSDWGQGTLVTVSS
VL: DIQLTQSPSSLSASVGDRVTITCRASESVDYYGHSLMQWYQQKPGKAPKLLIYAASKLASGVPSRFSGSGSGTDFTLTISSLQPEDFATYYCQQTRKAYTFGQGTKLEIK
notes: full human IgG1/kappa
B9: GUCY2C-1713 (antibody, human IgG1, V domains shown)
VH: EVQLVESGGGLVQPGGSLRLSCAASGFTFSHTWMHWVRQAPGKGLEWIGEIKPSRGFTNVHEKFKDRFTISVDKAKNSAYLQMNSLRAEDTAVYYCTRTITTTQGYWFFDVWGQGTLVTVSS
VL: DIQLTQSPSSLSASVGDRVTITCRASESVNWYGSSLMQWYQQKPGKAPKLLIYAASKLASGVPSRFSGSGSGTDFTLTISSLQPEDFATYYCQQTRKAYTFGQGTKLEIK
notes: full human IgG1/kappa

The target of the experiment is T1, Human GUCY2C ECD Cleaved (human, UniProt P25092 24-430).
T1 construct: also called human GUCY2c extracellular domain protein (ECD)
T1 sequence (P25092 other isoform, or with tags, fused parts or gaps): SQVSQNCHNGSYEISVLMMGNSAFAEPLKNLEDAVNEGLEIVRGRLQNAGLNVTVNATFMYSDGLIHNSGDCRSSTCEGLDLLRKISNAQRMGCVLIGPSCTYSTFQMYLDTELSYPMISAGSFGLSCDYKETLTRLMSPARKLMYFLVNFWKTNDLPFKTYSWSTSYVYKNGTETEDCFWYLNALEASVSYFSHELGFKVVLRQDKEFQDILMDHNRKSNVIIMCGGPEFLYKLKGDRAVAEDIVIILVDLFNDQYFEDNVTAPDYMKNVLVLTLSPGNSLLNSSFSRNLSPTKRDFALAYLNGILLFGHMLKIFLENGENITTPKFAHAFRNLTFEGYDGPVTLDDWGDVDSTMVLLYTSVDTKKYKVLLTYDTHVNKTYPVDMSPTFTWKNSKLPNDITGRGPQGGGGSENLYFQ
The experiment can be described thus: SPR, human IgG1 against human GUCY2c ECD. Background: SPR reads the build-up and loss of mass on a sensor chip optically.
One may read the Kd as the equilibrium constant for the complex coming apart. A lower Kd goes with tighter binding. A word on the koff: it is the rate constant with which the complex falls apart. Higher therefore signals a short-lived complex. The kon is the rate constant with which the complex forms. The molecule B1 showed a Kd of 6.25 nM, a koff of 0.00149 s⁻¹ and a kon of 239000 M⁻¹ s⁻¹.
Taken in the same sequence, the figures for B2 were 13.9 nM, 0.00271 s⁻¹ and 195000 M⁻¹ s⁻¹.
The molecule B3 gave a Kd of 9.44 nM, a koff of 0.00132 s⁻¹ and a kon of 140000 M⁻¹ s⁻¹.
The molecule B4 displayed a Kd of 10.3 nM, a koff of 0.00124 s⁻¹ and a kon of 121000 M⁻¹ s⁻¹.
The molecule B5 gave a Kd of 5.94 nM, a koff of 0.00147 s⁻¹ and a kon of 248000 M⁻¹ s⁻¹.
B6 returned a Kd of 10.3 nM, a koff of 0.00214 s⁻¹ and a kon of 210000 M⁻¹ s⁻¹.
In the same order, the values of B7 are 9.75 nM, 0.00193 s⁻¹ and 198000 M⁻¹ s⁻¹.
B8: the Kd came to 12.4 nM, the koff came out at 0.00179 s⁻¹ and the kon amounted to 144000 M⁻¹ s⁻¹.
Regarding B9, the Kd stood at 6.71 nM, the dissociation rate constant (koff) was 0.00108 s⁻¹ and the kon was determined as 161000 M⁻¹ s⁻¹.
